Test results from patent US20030008355A1 (published 2003).

T1: carcinoembryonic antigen (CEA) (UniProt P06731 35-685, limits assumed)
T1 construct: Antigen coated on microtitre plates
T1 sequence (looked up): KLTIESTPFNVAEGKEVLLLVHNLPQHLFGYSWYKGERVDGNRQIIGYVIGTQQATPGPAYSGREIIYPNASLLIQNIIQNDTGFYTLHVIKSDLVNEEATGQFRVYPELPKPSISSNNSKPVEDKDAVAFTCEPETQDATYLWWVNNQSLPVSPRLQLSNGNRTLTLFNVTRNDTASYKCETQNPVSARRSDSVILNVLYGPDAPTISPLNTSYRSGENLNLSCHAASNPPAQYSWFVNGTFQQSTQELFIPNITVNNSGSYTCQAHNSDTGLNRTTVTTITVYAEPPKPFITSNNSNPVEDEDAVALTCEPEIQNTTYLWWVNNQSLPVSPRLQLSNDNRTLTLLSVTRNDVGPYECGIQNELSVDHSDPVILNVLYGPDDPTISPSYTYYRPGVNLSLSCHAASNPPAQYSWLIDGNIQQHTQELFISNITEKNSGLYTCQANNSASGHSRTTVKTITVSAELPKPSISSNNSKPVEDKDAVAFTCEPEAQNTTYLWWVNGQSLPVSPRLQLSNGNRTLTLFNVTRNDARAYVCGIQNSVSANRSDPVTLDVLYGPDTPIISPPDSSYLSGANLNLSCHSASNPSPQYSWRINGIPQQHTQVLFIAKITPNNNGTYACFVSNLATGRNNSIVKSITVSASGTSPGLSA


What was measured:
[1] = molecular target: carcinoembryonic antigen (CEA) (UniProt P06731); experiment: acid-wash EIA on CEA-coated plates, citrate pH 2.5, 1 h 37 C
[2] = molecular target: T1, carcinoembryonic antigen (CEA); experiment: acid-wash EIA on CEA-coated plates, HCl pH 2, 1 h 37 C, against standard EIA
Procedure: Maxisorb assay plates (NUNC) were coated with CEA (0.4 μg/ml in phosphate-buffered saline at pH 7.2), 100 μl per well and left overnight at 4° C. The plates were then washed three times using phosphate buffered saline at pH 7.2 with 0.01% Tween 20 detergent. Any remaining reactive sites on the plates were blocked by the addition of 200 μl per well of 0.2% fat-free milk protein in PBS at pH 7.2 at 37° C. for ½ hour. The plates were then washed in PBS as described above and 45 μl of the antibody samples were added to the wells of the plates. The samples were incubated for one hour at 37° C. and then washed as described previously. Bound antibody was detected using alkaline phosphatase-conjugated donkey anti-sheep antibody (Sigma A5187 diluted 1/5000 in PBS at pH 7.2 with 1% BSA). The plates were then washed and 100 μl per well of PNPP (Sigma N2770) solution was added. Absorbance was measured using a spectrophotometer at 405 nm with phosphate buffered saline as a control.
Coating and binding of antibody samples was as described for the standard EIA above. However, after incubation with the antibody samples, the plates were washed and 200 μl per well of HCl (10 mM Stock solution) at pH 2 was added for one hour at 37° C. After three washes the antibody remaining bound to antigen was detected using alkaline phosphatase-conjugated donkey anti-sheep antibody and PNPP as described above. […]

[3] = molecular target: T1, carcinoembryonic antigen (CEA); experiment: acid-wash EIA on CEA-coated plates, citrate pH 3.5, 1 h 37 C
Procedure: (§1) Carcinoembryonic antigen (CEA)-coated microtitre plates were prepared as described previously. Single-chain Fv samples (6H9) were diluted to a range of concentrations between 1 ng/ml and 100 ng/ml in PBS at pH 7.2 containing 1% bovine serum albumin (BSA). 100 μl samples were added to the microtitre plate wells and incubated for 1 hour at 37° C. The plates were then washed, 200 μl per well of citrate added, and the plates incubated for 1 hour at 37° C. In this case, the acid preparations were made using a stock solution of 100 mM citrate diluted to pH values of 4.0, 3.5, 3.0, 2.5 and 2.0 in the reaction mixture. PBS at pH 7.2 was used as a reference control. The plates were then washed and 100 μl per well of mouse anti-tetra-histidine antibody (Qiagen) (100 ng/ml diluted in PBS at pH 7.2 with 1% BSA) added and incubated for 1 hour at 37° C. […] The plates were then washed, treated with PNPP as described previously and the absorbance measured using a spectrophotometer at 405 nm.
(§2) As a control for acid resistance, sFv samples were incubated with PBS at pH 7.2 to generate an EIA response curve for the SFv samples. In the linear region, a concentration of 10-20 ng/ml of the SFv sample gave an absorbance (A₄₀₅) of 1.0-1.5 and was therefore used to determine the amount of antibody bound in the acid washed samples as a percentage of the amount bound in the reference sample.

[4] = molecular target: T1, carcinoembryonic antigen (CEA); experiment: acid-wash EIA on CEA-coated plates, citrate pH 2.0, 1 h 37 C
Procedure: as §1, §2

[5] = molecular target: T1, carcinoembryonic antigen (CEA); experiment: acid-wash EIA on CEA-coated plates, citrate pH 2.5, 1 h 37 C
Procedure: as §1, §2

| percent antigen binding retained at pH 2.5 relative to pH 7.2 [1] | retention of binding in acid-washed EIA (pH 2) relative to non-acid washed EIA [2] | percent antigen binding retained at pH 3.5 relative to pH 7.2 [3] | percent antigen binding retained at pH 2.0 relative to pH 7.2 [4] | percent antigen binding retained at pH 2.5 relative to pH 7.2 [5] | Molecule |
| --- | --- | --- | --- | --- | --- |
| < 5% | – | – | – | – | mouse-derived anti-carcinoembryonic antigen single-chain Fv MFE (scFv) |
| – | > 50% | > 70% | > 50% | > 60% | 6H9 whole antibody (sheep monoclonal antibody secreted by hybridoma 6H9) (antibody, V domains shown, Whole sheep monoclonal antibody) VH: QVQLQESGPSLVKPSQTLSLTCTVSGFSLTKYGVSWVRQAPGKALEWLGGVSSGALTAYNTALQSRLSVTRDTSKSQFSLSLSSVTTEDTAIYYCAKSVNGDSVPYGLDYWSPGLLLTVSS VL: QDVLTQPSSVSGSLGQRVSITCSGSSSNIGGNAYVGWYQQVPGSAPRLLISATTDRASGIPDRFSGSRSGNTATLTISSLQAEDEADYYCASYQSTYSGVFGSGTRLTVLG |
| – | – | > 70% | > 50% | > 60% | 6H9 single-chain Fv (scFv, VH-(Gly4Ser)3-VL with C-terminal hexa-histidine tag, expressed in E. coli HB 2151; also called 6H9 SFv; sFv) scFv: QVQLQESGPSLVKPSQTLSLTCTVSGFSLTKYGVSWVRQAPGKALEWLGGVSSGALTAYNTALQSRLSVTRDTSKSQFSLSLSSVTTEDTAIYYCAKSVNGDSVPYGLDYWSPGLLLTVSSGGGGSGGGGSGGGGSQDVLTQPSSVSGSLGQRVSITCSGSSSNIGGNAYVGWYQQVPGSAPRLLISATTDRASGIPDRFSGSRSGNTATLTISSLQAEDEADYYCASYQSTYSGVFGSGTRLTVLGHHHHHH |
| < 5% | – | – | – | – | mouse-derived anti-carcinoembryonic antigen whole antibody A5B7 (antibody, from another filing, V domains shown) VH: EVKLVESGGGLVQPGGSLRLSCATSGFTFTDYYMNWVRQPPGKALEWLGFIGNKANGYTTEYSASVKGRFTISRDKSQSILYLQMNTLRAEDSATYYCTRDRGLRFYFDYWGQGTTLTVSS VL: QTVLSQSPAILSASPGEKVTMTCRASSSVTYIHWYQQKPGSSPKSWIYATSNLASGVPARFSGSGSGTSYSLTISRVEAEDAATYYCQHWSSKPPTFGGGTKLEIK |
